Data as given in patent publication US20130180016A1.

Tests used:
[1] = molecular target: putative receptor(s) on brush border membrane vesicles (BBMV) prepared from midguts of third instars of the western corn rootworm (Diabrotica virgifera virgifera LeConte) (Diabrotica virgifera virgifera); assay: saturation radioligand binding to western corn rootworm BBMV (0.1 mg/ml), GraphPad Prism fit
[2] = molecular target: putative receptor(s) on brush border membrane vesicles (BBMV) prepared from midguts of third instars of the western corn rootworm (Diabrotica virgifera virgifera LeConte) (Diabrotica virgifera virgifera)
[3] = molecular target: putative receptor(s) on brush border membrane vesicles (BBMV) prepared from midguts of third instars of the western corn rootworm (Diabrotica virgifera virgifera LeConte) (Diabrotica virgifera virgifera); assay: homologous competition, 5 nM 125I-Cry3Ba1 on western corn rootworm BBMV (0.1 mg/ml), unlabelled Cry3Ba1 (0-2,500 nM) as competitor

B1: Cry35Ab1 chymotrypsin core (chymotrypsin-truncated Cry35Ab1 core protein) (protein)
chain: MLDTNKVYEISNHANGLYAATYLSLDDSGVSLMNKNDDDIDDYNLKWFLFPIDDDQYIITSYAANNCKVWNVNNDKINVSTYSSTNSIQKWQIKANGSSYVIQSDNGKVLTAGTGQALGLIRLTDESSNNPNQQWNLTSVQTIQLPQKPIIDTKLKDYPKYSPTGNIDNGTSPQLMGWTLVPCIMVNDPNIDKNTQIKTTPYYILKKYQYWQRAVGSNVALRPHEKKSYTYEWGTEIDQKTTIINTLGFQINIDSGMKFDIPEVGGGTDEIKTQLNEELKIEYSHETKIMEKYQEQSEIDNPTDQSMNSIGFLTITSLELYRYNGSEIRIMQIQTSDNDTYNVTSYPNHQQALL
modifications: 125I-iodinated (Pierce Iodination Beads, Na125I) where used as the labelled ligand; unlabelled where used as competitor
[1]
  Kd: 11.7 nM
  binding site concentration Bmax: 0.78 pmol/mg BBMV

B2: mixture of Cry35Ab1+Cry34Ab1 (binary toxin) (protein)
chain 1: B1 chain
chain 2: MSAREVHIDVNNKTGHTLQLEDKTKLDGGRWRTSPTNVANDQIKTFVAESNGFMTGTEGTIYYSINGEAEISLYFDNPFAGSNKYDGHSNKSQYEIITQGGSGNQSHVTYTIQTTSSRYGHKS
modifications: 125I-iodinated where the mixture holds the labelled ligand
[2]
  specific binding as percent of the total binding: 90%

B3: Cry3Ba1 trypsin core (protein)
chain: SQDRIRELFSQAESHFRNSMPSFAVSKFEVLFLPTYAQAANTHLLLLKDAQVFGEEWGYSSEDIAEFYQRQLKLTQQYTDHCVNWYNVGLNSLRGSTYDAWVKFNRFRREMTLTVLDLIVLFPFYDVRLYSKGVKTELTRDIFTDPIFTLNALQEYGPTFSSIENSIRKPHLFDYLRGIEFHTRLRPGYSGKDSFNYWSGNYVETRPSIGSNDTITSPFYGDKSIEPIQKLSFDGQKVYRTIANTDIAAFPDGKIYFGVTKVDFSQYDDQKNETSTQTYDSKRYNGYLGAQDSIDQLPPETTDEPLEKAYSHQLNYAECFLMQDRRGTIPFFTWTHRSVDFFNTIDAEKITQLPVVKAYALSSGASIIEGPGFTGGNLLFLKESSNSIAKFKVTLNSAALLQRYRVRIRYASTTNLRLFVQNSNNDFLVIYINKTMNIDGDLTYQTFDFATSNSNMGFSGDTNDFIIGAESFVSNEKIYIDKIEFIPVQ
modifications: 125I-iodinated (Pierce Iodination Beads, Na125I) where used as the labelled ligand; unlabelled where used as competitor
[3]
  percent of the total binding displaced: > 20%
[1]
  Kd: 7.35 nM
  binding site concentration Bmax: 0.55 pmol/mg BBMV
